1 variant from article PMC12025923 (Cells, 2025) can be followed below.

B1: wild-type 14-3-3γ-3xHA [human] / GFP-SLP76 [human] (parent)
chain 1: MVDREQLVQKARLAEQAERYDDMAAAMKNVTELNEPLSNEERNLLSVAYKNVVGARRSSWRVISSIEQKTSADGNEKKIEMVRAYREKIEKELEAVCQDVLSLLDNYLIKNCSETQYESKVFYLKMKGDYYRYLAEVATGEKRATVVESSEKAYSEAHEISKEHMQPTHPIRLGLALNYSVFYYEIQNAPEQACHLAKTAFDDAIAELDTLNEDSYKDSTLIMQLLRDNLTLWTSDQQDDDGGEGNN
chain 2: MALRNVPFRSEVLGWDPDSLADYFKKLNYKDCEKAVKKYHIDGARFLNLTENDIQKFPKLRVPILSKLSQEINKNEERRSIFTRKPQVPRFPEETESHEEDNGGWSSFEEDDYESPNDDQDGEDDGDYESPNEEEEAPVEDDADYEPPPSNDEEALQNSILPAKPFPNSNSMYIDRPPSGKTPQQPPVPPQRPMAALPPPPAGRNHSPLPPPQTNHEEPSRSRNHKTAKLPAPSIDRSTKPPLDRSLAPFDREPFTLGKKPPFSDKPSIPAGRSLGEHLPKIQKPPLPPTTERHERSSPLPGKKPPVPKHGWGPDRRENDEDDVHQRPLPQPALLPMSSNTFPSRSTKPSPMNPLPSSHMPGAFSESNSSFPQSASLPPYFSQGPSNRPPIRAEGRNFPLPLPNKPRPPSPAEEENSLNEEWYVSYITRPEAEAALRKINQDGTFLVRDSSKKTTTNPYVLMVLYKDKVYNIQIRYQKESQVYLLGTGLRGKEDFLSVSDIIDYFRKMPLLLIDGKNRGSRYQCTLTHAAGYP

The variants in the assay derive from B1. The assay is described as follows: co-immunoprecipitation, quantified Western blot. Conditions: with GFP-SLP76 [human]; N2a cells; read off a plot. (In general: Immunoblotting shows a protein as a band on a membrane.)
As to chain 1 MVDREQLVQKARLAEQAERYDDMAAAMKNVTELNEPLSNEERNLLSVAYKNVVGARCSSWRVISSIEQKTSADGNEKKIEMVRAYREKIEKELEAVCQDVLSLLDNYLIKNCSETQYESKVFYLKMKGDYYRYLAEVATGEKRATVVESSEKAYSEAHEISKEHMQPTHPIRLGLALNYSVFYYEIQNAPEQACHLAKTAFDDAIAELDTLNEDSYKDSTLIMQLLRDNLTLWTSDQQDDDGGEGNN [chain 1 R57C], the ratio to parent (fold of wild-type) is 0.2.
